How the values were obtained:
[1] = tested on: histone H1; assay: ELISA affinity for histone H1; assay type: binding; conditions: absorbance at 405 nm; 5 μg/mL antibody; compared among histones
Method: (§1) The Affinities between histone H1 or core histone and SSVmAb were determined by ELISA.
(§2) A 96 well microplate was coated with histone H1, H2A, H2B, H3 or H4. Each histone used was dissolved in 100 mM sodium carbonate buffer (pH 9.3). The plate was washed with PBS-tween 20 (0.05%), and blocked with 3% skim milk and 1% BSA for 1 hour. To each well, 5 μg/mL SSVmAb was added, and incubated for 1 hour. Bound SSVmAb was detected using peroxidase (HRP) conjugated anti mouse IgG1 Ab (SIGMA), and incubated for 1 hour. Bound SSVmAb was detected using the ABTS [2,2′-azino-bis(3-ethylbenzothiazoline-sulfonic acid)] substrate solution, and absorbance at 405 nm was measured using Multiskan Ascent (Thermo Fisher Scientific Inc., Waltham, Mass.).
(§3) After the end of the tests, binding assays of SSV mAb with histone H1, histone H3 and histone H4 were carried out by ELISA in the same manner as Test Example 2.

[2] = tested on: histone H2A; assay: ELISA affinity for histone H2A; assay type: binding; conditions: absorbance at 405 nm; 5 μg/mL antibody; compared with histone H1
Method: as §1, §2

[3] = tested on: histone H2B; assay: ELISA affinity for histone H2B; assay type: binding; conditions: absorbance at 405 nm; 5 μg/mL antibody; compared with histone H1
Method: as §1, §2

[4] = tested on: histone H3; assay: ELISA affinity for histone H3; assay type: binding; conditions: absorbance at 405 nm, 5 μg/mL antibody, compared with histone H1
Method: as §1, §2, §3

[5] = tested on: spleen lymphocytes from a naive DA rat (responsive cells) and from a LEW rat (stimulated cells); assay: MLR tests (mixed lymphocyte reaction, BrdU incorporation); assay type: cell-based
Method: Spleen lymphocytes from a naive DA rat (responsive cells) and spleen lymphocytes from a LEW rat treated with mitomycin-C (Kyowa Hakko Kogyo Co., Ltd.) (stimulated cells) were used. The responsive cells were adjusted to 5×10^5 cells/mL with 10% FCS-RPMI culture medium, and the stimulated cells were adjusted to 8×10^6 cells/mL with 10% FCS-RPMI culture medium. After plating the responsive cell suspension and the stimulated cell suspension in an amount of 100 μL to a 96 well round-bottom plate (Nunc Brand Products) respectively, the monoclonal antibody 16G9mAb of Reference Example 1 (0.1, 2, 4, or 6 μg/mL/well) or the monoclonal antibody SSVmAb of Example 1 (4 μg/mL/well) was added at the start of mixed culture, and cultured for 3.5 days or longer under the conditions of 37° C., 5% CO2/95% air. In addition, an immunosuppressive agent tacrolimus (FK506: Fujisawa Pharmaceutical Co., Ltd., 1 nM/well) was added as a positive control. Further, 10 μL bromo deoxyuridine (BrdU) was added 15 hours before the end of culture. Then the proliferation potential of the cells treated with the immunosuppressive agent was measured using BrdU labeling & detection kit III (Roche Diagnostics K.K.) using the amount of BrdU incorporated into cellular DNA as an indicator.

[6] = tested on: T cells from a Balb/c mouse; assay: MLR tests with T cells with or without mitochondria ATP synthase knock-down by siRNA; assay type: cell-based
[7] = tested on: lipopolysaccharide (LPS)-induced lethal sepsis; assay: Test Example 8-3: staining test of lung tissue; assay type: in vivo, BALB/c mice; conditions: after the end of Test Example 8
Method: (§4) BALB/c mice (bodyweight of 20 g to 30 g when starting the experiments, n=10) were raised in a plastic cage under SPF and thermo-hydrostat (22±1° C., 55±5%) conditions under 12-hour light-dark cycle. Foods and water were supplied ad libitum. Then, by intraperitoneally administering LPS to the mice at a dose of 40 mg/kg, lipopolysaccharide (LPS)-induced lethal sepsis as an inflammatory disease was induced in the same manner as Test Example 7. SSV mAb dissolved in physiological saline was intraperitoneally administered totally 3 times, i.e., at 30 minutes before, 6 hours after and 12 hours after the intraperitoneal administration of LPS, in an amount of 100 μg/dose in terms of the amount of SSV mAb. The survival of the animals thereafter was tested. To the control group, IgG (SIGMA) dissolved in physiological saline was administered in place of SSV mAb in the same manner.
After the end of Test Example 8, lung tissue sections were each obtained from […] of control group and SSV mAb-administered group, and stained by using hematoxylin and eosin stain (from Wako Pure Chemical Industries, Ltd.) according to the method conducted by Hasegawa et al. (Surg Res. 2012 May 1; 174(1):136-41.). Next, micrographs of the obtained samples were taken.
As a reference, micrographs of lung tissue slices from healthy rats were taken in the same manner.

[8] = tested on: lipopolysaccharide (LPS)-induced lethal sepsis; assay: Test Example 8-5: measurement of inflammation-associated cytokine in serum; assay type: in vivo, BALB/c mice; conditions: vs control group
Method: as §4
In Test Example 8, serum was obtained from venous blood of the control group and the SSV mAb-administered group every 3 hours. Then, the concentrations of inflammatory cytokine (TNF-α, IL-1β, IL-6) and inhibitory cytokine (IL-10) in obtained samples were measured by using a commercially available measurement kit using ELISA.

[9] = tested on: renal ischemia reperfusion injury; assay: Test Example 9: acute renal failure due to renal ischemia reperfusion injury, check test 1; assay type: in vivo, male Wistar rat; conditions: autopsy after the end of the test; vs control group
Method: Right kidney was removed from male Wistar rat (n=4) under general anesthesia, and then left kidney of the rat was subjected to ischemia reperfusion with vascular clip to prepare a model. For SSV mAb-administered group, SSV mAb was then administered in an amount of 10 mg/kg 30 minutes before preparing the model and immediately after the reperfusion For control group, IgG (SIGMA) was administered in place of SSV mAb in the same manner. Then, urea nitrogen (BUN) and creatinine (Cr) in serum at 24 hours after preparing the model were measured and the nephropathy level was evaluated. Further, the rats were subjected to autopsy after the end of the test, and histological evaluation was performed.

[10] = tested on: renal ischemia reperfusion injury; assay: Test Example 10: acute renal failure due to renal ischemia reperfusion injury, check test 2; assay type: in vivo, male Wistar rats; conditions: autopsy after the end of the test; vs control group
Method: Right kidney was removed from male Wistar rat (n=4) under general anesthesia, and then left kidney of the rat was subjected to ischemia reperfusion with vascular clip to prepare a model. For SSV mAb-administered group, SSV mAb was then administered in an amount of 10 mg/kg 30 minutes before preparing the model and immediately after the reperfusion Test was carried out in the same manner as Test Example 10 except that male Wistar rats (n=4-6) were used and except that, for SSV mAb-administered group, SSV mAb was administered in an amount of 10 mg/kg 30 minutes before preparing the model and 6 hours after the reperfusion. For control, IgG (SIGMA) was administered in place of SSV mAb in the same manner. Then, the concentrations of urea nitrogen (BUN) and creatinine (Cr) in serum at 24 hours after preparing the model were measured and the nephropathy level was evaluated. Further, the rats were subjected to autopsy after the end of the test, and histological evaluation was performed.

B1: SSV mAb: monoclonal antibody (IgG1) produced by Mouse-Mouse hybridoma SSV-C 93-3 (NITE BP-972), raised against peptide … (SEQ ID NO:1)-KLH conjugate (antibody, V domains shown)
VH: EIQLQQSGAELVKPGASVKISCKASGYSFTGYNMNWVKQSHGKSLEWIGNINPYYGSTSYNQKFKGKATLTVDKSSSTAYMQLNSLTSEDSAVYYCARSPYYSNYWRYFDYWGQGTTLTVSS
VL: QIVLSQSPAILSASPGEKVTMTCRASSSVSYMHWYQQKPGSSPKPWIYATSNLASGVPARFSGSGSGTSYSLTISRVEAEDAATYYCQQWSSNPWTFGGGTKLEIK
affinity for histone H1 (ELISA) [1]: binding capacity | affinity for histone H2A (ELISA) [2]: higher than the affinity for histone H1 | affinity for histone H2B (ELISA) [3]: higher than the affinity for histone H1 | affinity for histone H3 (ELISA) [4]: binding capacity | affinity for histone H3 (ELISA) ([4]; listed as SSVmAb): higher than the affinity for histone H1 | absorbance which indicates the amount of incorporated BrdU ([5]; 4 μg/mL/well, mean±S.E.): 0.552±0.114 | absorbance (incorporated BrdU) compared with Reference Example 1 (16G9mAb) and tacrolimus (FK506) ([5]; SSVmAb 4 μg/mL/well, FK506 1 nM/well): lower | mean absorbance of Example 1 relative to that of Reference Example 1 ([5]; same amount added, 4 μg/mL/well): about 41% | cell growth inhibition in MLR compared with Isotype IgG1 ([6]; ATP synthase knocked down): no significant difference | cell growth inhibition in MLR compared with Isotype IgG1 ([6]; ATP synthase not knocked down): significantly inhibited cell growth | inflammation in lungs (hematoxylin and eosin stained lung tissue sections) [7]: not observed | IL-1β concentration in blood sample [8]: significantly decreased | IL-6 concentration in blood sample [8]: significantly decreased | IL-10 concentration in blood sample [8]: significantly increased | TNF-α concentration in blood sample [8]: significantly decreased | histological evaluation of kidney [9]: better than that of the control group | histological evaluation of kidney [10]: better than that of the control group

Source: patent US20170096478A1, “THERAPEUTIC AGENT FOR INFLAMMATORY DISEASE” (Josai University Corporation, priority 2012, published 2017)
